Measured values: the supplement of paper PMC10126150
± gives the standard deviation of the averaged measurements.

tested on: ATP; assay: switch fluorescence ratio, 500 uM ATP over buffer (Cy3 cluster intensity, sum of 5 cycles each) (fold (ratio)); higher = stronger signal-on switching upon ATP binding; sequences stand for … in TCGTCGGCAGCGTCAGATGTGTATAAGAGACAGTTTTTTTTTTTTTTTTTTTTTTTTT…TC; settings: aptamer strand: ATP DNA aptamer (quencher-CACCTGGGGGAGTATTGCGGAGGAAGG + anchor), 100 nM annealed; ATP concentration: 500 uM
In short: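 Switching-strand clusters labelled with Cy3 on a modified Illumina MiSeq flow-cell were annealed to 100 nM quencher-labelled ATP aptamer, imaged in selection buffer, and re-imaged after 15 min with 500 uM ATP at 22 °C. This was done over five cycles with NaOH stripping and re-annealing in between. The fluorescence ratio is summed target-cycle over summed buffer-cycle Cy3 intensity per cluster, averaged per switch-domain sequence, excluding clusters outside 100-1000 RFU.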
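Note: ATP exposure 15 min at 22 °C before imaging.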

Sequence | switch fluorescence ratio
GAGGGAAGTT | 1.04 ± 0.037
GAGGGACGGC | 0.999 ± 0.059
GAGGGAGATT | 1.02 ± 0.05
GAGGGAGCAG | 1.01 ± 0.017
GAGGGAGGCT | 1.04 ± 0.015
GAGGGAGGTC | 0.968 ± 0.043
GAGGGAGTAT | 0.9959 ± 0.0027
GAGGGATAAA | 1.003 ± 0.0018
GAGGGATCAG | 0.994 ± 0.011
GAGGGATGGT | 1.01 ± 0.029
GAGGGATTTG | 1 ± 0.03
GAGGGCACAT | 1.03 ± 0.05
GAGGGCAGGG | 0.978 ± 0.034
GAGGGCCATT | 0.978 ± 0.017
GAGGGCCGGT | 1.03 ± 0.032
GAGGGCTCTT | 1.05 ± 0.029
GAGGGGAAGG | 0.958 ± 0.057
GAGGGGACGA | 0.998 ± 0.011
GAGGGGACGG | 0.996 ± 0.015
GAGGGGAGTG | 1.03 ± 0.064
GAGGGGCATG | 1.01 ± 0.032
GAGGGGCTAA | 0.9516 ± 0.0088
GAGGGGCTTC | 1 ± 0.016
GAGGGGGAGG | 0.982 ± 0.019
GAGGGGGATT | 0.991 ± 0.028

Sequence | switch fluorescence ratio
GAGGGGGCTC | 1.04 ± 0.028
GAGGGGGGCC | 1.01 ± 0.06
GAGGGGGGTA | 0.989 ± 0.02
GAGGGGTATG | 1 ± 0.019
GAGGGGTGAG | 1.01 ± 0.041
GAGGGGTGGA | 0.996 ± 0.015
GAGGGGTGTA | 0.9896 ± 0.0085
GAGGGGTTGA | 1.01 ± 0.077
GAGGGTAGGT | 1.06 ± 0.063
GAGGGTAGTC | 1.004 ± 0.007
GAGGGTATGG | 1.014 ± 0.0075
GAGGGTCCGG | 0.991 ± 0.035
GAGGGTTAAT | 1.02 ± 0.02
GAGGGTTTTT | 1 ± 0.021
GAGGTAAGAT | 1.02 ± 0.032
GAGGTACAAA | 1.013 ± 0.01
GAGGTACGGG | 0.98966 ± 0.00039
GAGGTACTAG | 1.02 ± 0.0023
GAGGTCGCGC | 1.01 ± 0.043
GAGGTGTCG | 1.04 ± 0.041
GAGGTTAGAG | 0.9796 ± 0.0026
GAGGTTAGGA | 1 ± 0.012
GAGGTTCATT | 1.09 ± 0.085
GAGGTTGATC | 0.983 ± 0.056
GAGGTTGTAG | 0.994 ± 0.021

Sequence | switch fluorescence ratio
GAGGTTTCAC | 0.965 ± 0.023
GAGGTTTCGT | 0.988 ± 0.02
GAGGTTTCTA | 0.993 ± 0.038
GAGTAACCTG | 1.01 ± 0.071
GAGTAAGCAA | 1.64 ± 0.084
GAGTACGCTA | 3.07 ± 1.2
GAGTACTCCT | 1.04 ± 0.04
GAGTACTCGT | 1.03 ± 0.034
GAGTAGCGGA | 0.999 ± 0.042
GAGTATAGAT | 1.001 ± 0.0034
GAGTATGGGT | 1 ± 0.021
GAGTCAATAG | 2.98 ± 0.047
GAGTCACAGT | 1 ± 0.057
GAGTCAGAAT | 1.01 ± 0.013
GAGTCATGTG | 1.01 ± 0.037
GAGTCCATGG | 0.985 ± 0.013
GAGTCGGCGG | 0.9893 ± 0.0023
GAGTCGGGGG | 0.985 ± 0.01
GAGTCGGGGT | 1.01 ± 0.027
GAGTGAGGGC | 0.9957 ± 0.003
GAGTGAGTAC | 1 ± 0.055
GAGTGAGTAT | 0.9731 ± 0.0071
GAGTGATTTA | 1.01 ± 0.035
GAGTGCCTGG | 1.02 ± 0.012
GAGTGCTTAA | 0.971 ± 0.022

Sequence | switch fluorescence ratio
GAGTGGCTCT | 0.968 ± 0.026
GAGTGGGAGG | 1.02 ± 0.026
GAGTGGGCCT | 0.963 ± 0.044
GAGTGGTCAG | 0.9638 ± 0.0077
GAGTGTATTT | 1.02 ± 0.016
GAGTTAAAAG | 1.01 ± 0.02
GAGTTAGTAA | 0.999 ± 0.045
GAGTTAGTTA | 0.989 ± 0.028
GAGTTATGTA | 0.997 ± 0.016
GAGTTGAGGA | 0.98 ± 0.014
GAGTTGGGGG | 1.02 ± 0.012
GAGTTTATGT | 1.01 ± 0.022
GAGTTTATTA | 0.994 ± 0.021
GAGTTTGGTG | 0.94 ± 0.033
GAGTTTGTAT | 0.961 ± 0.028
GAGTTTTGGT | 1.03 ± 0.019
GATAAAAATA | 0.998 ± 0.018
GATAAAGACG | 0.9893 ± 0.0059
GATAACGTTT | 0.99 ± 0.017
GATAAGAGCC | 1.008 ± 0.0024
GATAAGGGGT | 0.981 ± 0.035
GATAATAGGT | 0.993 ± 0.016
GATAATGGTA | 1.008 ± 0.005
GATAATTGGT | 0.998 ± 0.012
GATAATTTTG | 0.989 ± 0.027

Sequence | switch fluorescence ratio
GATACATTGC | 1.07 ± 0.029
GATACTCGCG | 1.03 ± 0.0056
GATACTGTGA | 0.995 ± 0.023
GATACTTCTA | 0.972 ± 0.026
GATAGAAAGA | 0.964 ± 0.025
GATAGACGAG | 1.03 ± 0.043
GATAGACGGA | 0.99171 ± 0.00018
GATAGACTCT | 0.975 ± 0.029
GATAGAGCAT | 1.01 ± 0.013
GATAGATAGA | 0.9957 ± 0.002
GATAGATTAG | 0.998 ± 0.0038
GATAGCAGCG | 1.01 ± 0.064
GATAGCTCTG | 1.02 ± 0.021
GATAGCTGGT | 0.981 ± 0.025
GATAGCTTAG | 0.9935 ± 0.0071
GATAGGGGCT | 0.938 ± 0.042
GATAGGGGGA | 0.984 ± 0.058
GATAGGTAAG | 0.962 ± 0.025
GATAGGTTGT | 1.02 ± 0.035
GATAGTAGC | 0.978 ± 0.024
GATAGTCTTG | 0.985 ± 0.023
GATAGTGGTT | 1.022 ± 0.0078
GATAGTGTAG | 1.03 ± 0.0034
GATAGTTGGG | 0.988 ± 0.02
GATATAAGCT | 1.05 ± 0.066

Sequence | switch fluorescence ratio
GATATAGAGG | 0.986 ± 0.055
GATATAGCTC | 0.999 ± 0.038
GATATAGGGT | 0.983 ± 0.018
GATATATAGA | 0.998 ± 0.032
GATATATTCG | 1 ± 0.016
GATATCCGTT | 0.976 ± 0.016
GATATCTCCT | 1.09 ± 0.011
GATATGCTGG | 0.987 ± 0.018
GATATGGATG | 0.96 ± 0.032
GATATGGGTG | 1.04 ± 0.049
GATATGTGGT | 0.9989 ± 0.004
GATATTCTTT | 0.988 ± 0.018
GATATTGAGT | 0.9648 ± 0.0073
GATATTGCTA | 0.975 ± 0.03
GATATTGGCG | 0.956 ± 0.013
GATATTGTAG | 0.986 ± 0.026
GATATTTAAG | 0.988 ± 0.042
GATATTTTGA | 1.02 ± 0.019
GATATTTTTC | 1.035 ± 0.0096
GATCAAACGG | 1 ± 0.036
GATCAATTAA | 0.9942 ± 0.007
GATCAGAGGA | 1.05 ± 0.039
GATCATAATG | 1.01 ± 0.021
GATCATGCGG | 0.9854 ± 0.0089
GATCCGGGTG | 1.38 ± 0.45

Sequence | switch fluorescence ratio
GATCCTGAAC | 1.37 ± 0.12
GATCGCTAGG | 0.984 ± 0.035
GATCGCTCGG | 1.01 ± 0.02
GATCGGCGTG | 1 ± 0.015
GATCGGGACT | 0.9826 ± 0.0047
GATCGGGCTA | 0.9664 ± 0.0014
GATCGGGCTG | 0.903 ± 0.051
GATCGTATGT | 0.9838 ± 0.0013
GATCGTTGGT | 0.991 ± 0.021
GATCGTTTGT | 1.01 ± 0.021
GATCTACCCA | 1.028 ± 0.0089
GATCTACTTG | 0.995 ± 0.017
GATCTGGTTT | 0.998 ± 0.056
GATCTGTGCG | 0.972 ± 0.032
GATCTTATCG | 0.984 ± 0.026
GATCTTATTC | 0.98506 ± 0.00068
GATGAAAAAT | 0.975 ± 0.024
GATGAAGAAA | 1.025 ± 0.0026
GATGAATCGG | 0.973 ± 0.012
GATGAGAGGG | 1.002 ± 0.0059
GATGAGATTT | 0.972 ± 0.046
GATGAGTGGT | 0.979 ± 0.02
GATGAGTTAG | 0.973 ± 0.017
GATGAGTTGA | 0.988 ± 0.02
GATGATATTG | 0.992 ± 0.012

Sequence | switch fluorescence ratio
GATGATCGGG | 1.02 ± 0.013
GATGATGGAG | 1.02 ± 0.011
GATGATTATC | 0.986 ± 0.022
GATGATTCGG | 0.984 ± 0.037
GATGCACTCC | 1.911 ± 0.0078
GATGCAGCGA | 1.107 ± 0.011
GATGCAGGCC | 0.892 ± 0.017
GATGCCGGGA | 1.02 ± 0.038
GATGCGAGGT | 0.952 ± 0.02
GATGCTCGAA | 0.989 ± 0.025
GATGCTTTTT | 1.02 ± 0.018
GATGGAAACT | 1.008 ± 0.0072
GATGGAAGTT | 1 ± 0.018
GATGGACATA | 1.031 ± 0.0015
GATGGCCGCG | 1.03 ± 0.024
GATGGGATGC | 1.07 ± 0.071
GATGGGCACC | 1.01 ± 0.012
GATGGGCGGT | 0.9773 ± 0.0094
GATGGGGGAA | 0.986 ± 0.049
GATGGGGGTC | 1.21 ± 0.34
GATGGGTATT | 0.968 ± 0.015
GATGGGTCTA | 0.966 ± 0.029
GATGGTAAAC | 1.05 ± 0.056
GATGGTAGCC | 0.9862 ± 0.0098
GATGGTGTGA | 0.978 ± 0.014
